Results published in patent US20240209070A1 (LUNDQUIST INSTITUTE FOR BIOMEDICAL INNOVATION AT HARBOR …, published 2024).
Like-named read-outs stand apart in the source and are kept apart here.

What was measured:
[1] = molecular target: T1, recombinant CotH3 protein of Rhizopus delemar 99-880 (Flag-TEV-CotH3 made in S. cerevisiae) (Rhizopus delemar 99-880 (Rhizopus …, UniProt I1CFE1 18-579)); experiment: method and antigen form not stated
T1 construct: also called CotH3 antigen; rCotH3p
T1 sequence: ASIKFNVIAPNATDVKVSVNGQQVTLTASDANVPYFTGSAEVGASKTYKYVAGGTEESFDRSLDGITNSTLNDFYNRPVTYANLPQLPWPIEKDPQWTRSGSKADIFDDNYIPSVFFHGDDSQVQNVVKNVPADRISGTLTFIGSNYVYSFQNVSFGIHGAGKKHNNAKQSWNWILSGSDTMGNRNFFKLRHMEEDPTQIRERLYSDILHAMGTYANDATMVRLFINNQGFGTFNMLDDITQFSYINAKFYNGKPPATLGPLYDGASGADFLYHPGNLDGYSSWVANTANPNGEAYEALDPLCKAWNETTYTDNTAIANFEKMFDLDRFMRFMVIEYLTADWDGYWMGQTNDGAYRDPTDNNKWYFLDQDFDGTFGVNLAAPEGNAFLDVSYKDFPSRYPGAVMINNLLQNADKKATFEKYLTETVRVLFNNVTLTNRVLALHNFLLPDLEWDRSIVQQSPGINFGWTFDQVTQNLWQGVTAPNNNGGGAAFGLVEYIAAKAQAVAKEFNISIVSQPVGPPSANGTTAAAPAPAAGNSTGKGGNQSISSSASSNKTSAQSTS

[2] = molecular target: T1, recombinant CotH3 protein of Rhizopus …; experiment: not stated (conclusions; reported affinity)
[3] = molecular target: T1, recombinant CotH3 protein of Rhizopus …
[4] = molecular target: T1, recombinant CotH3 protein of Rhizopus …; experiment: dose response of Fnorm [per mille] against ligand concentration [M], Kd model, On Time 20s, TargetConc 5nM, Unbound 829.3, Bound 803.3, amplitude 26.0, signal to noise 20.5; method and antigen not named in the filing's text
[5] = molecular target: T1, recombinant CotH3 protein of Rhizopus …; experiment: BLI (Gator), antibody on Protein G sensor, CotH3 6.25-400 nM, 25 C
Description: (§1) The purified preparations were then used to assess the affinity of each clone for the CotH3 antigen by biolayer interferometry using Gator system (ProbeLife). Under the assumption that the CotH3 antigen provided by Vitalex behaves as a normal soluble monomeric protein, a Protein G coated sensor probe (ProbeLife, catalog #160006) was loaded with the bivalent antibody test clone at a concentration of 5 μg/ml in ProbeLife's kinetic buffer (PBS pH 7.4, 0.02% BSA, 0.002% Tween-20, 0.005% NaN₃). […] All reactions were performed at 25° C. The values are chosen when three or more concentrations yield the same kinetic values.

[6] = molecular target: T1, recombinant CotH3 protein of Rhizopus …; experiment: BLI (Gator), from the KD values of Table 5
Description: as §1

[7] = molecular target: T1, recombinant CotH3 protein of Rhizopus …; experiment: BLI (Gator), antibody from culture medium on Protein G sensor
[8] = molecular target: T2, Mucor circinelloides (Mucor circinelloides); experiment: flow cytometry on fixed Mucor circinelloides spores, 20 ug/ml antibody; blank 'Hu 2nd Only' median 990.21, mean 1062.19
T2 construct: native, on paraformaldehyde-fixed spores; also called cell-surface CotH antigen on Mucor circinelloides spores

[9] = molecular target: T3, Rhizomucor (Rhizomucor (species not given)); experiment: flow cytometry on fixed Rhizomucor spores, 20 ug/ml antibody; blank 'Hu 2nd Only' median 257.20, mean 272.52
T3 construct: native, on paraformaldehyde-fixed spores; also called cell-surface CotH antigen on Rhizomucor spores

[10] = molecular target: T4, Cunninghamella bertholletiae (Cunninghamella bertholletiae); experiment: flow cytometry on fixed Cunninghamella bertholletiae spores, 20 ug/ml antibody; blank 'Hu 2nd Only' median 241.78, mean 250.81
T4 construct: native, on paraformaldehyde-fixed spores; also called cell-surface CotH antigen on Cunninghamella bertholletiae spores

[11] = molecular target: T5, Rhizopus delemar (Rhizopus delemar); experiment: flow cytometry on fixed Rhizopus delemar spores, 20 ug/ml antibody; blank 'Hu 2nd Only' median 565.83, mean 592.76
T5 construct: native, on paraformaldehyde-fixed spores; also called cell-surface CotH antigen on Rhizopus delemar spores

B1: mouse anti-CotH3 monoclonal antibody clone C2 (antibody, V domains shown)
VH: DLQLQESGPSLVKPSQTLSLTCSVTGDSITSGYWNWIRKFPGNKLEHMGYIKYSGRTFYNPSLKSRVSITRDTSKNQYYLQLNSVTSEDTATYYCASRGYWGQGTTLTVSS
VL: DVVMTQTPLSLSVTIGQPASISCKSSQSLLYSNGKTYLNWLQQRPGQAPKLLMFQVSKPGIPDRFSGSGSETDFTLKISRVEAEDLGVYYCLQGTYFPHTFGAGTKVEIK
notes: also called 6E11A8 mAb; mAb
Kd [1]: ~40 nM
Kd [2]: ~50 nM
Kd [3]: 58.9 nM
koff [3]: 0.00141 s⁻¹
kon [3]: 23900 M⁻¹ s⁻¹
Kd [4]: 40.4 nM

B2: C2 Chimera 2 (C2 VH on human IgG1 constant region with AvantGen cloned variable kappa on human kappa constant region) (antibody, V domains shown)
VH: DLQLQESGPSLVKPSQTLSLTCSVTGDSITSGYWNWIRKFPGNKLEHMGYIKYSGRTFYNPSLKSRVSITRDTSKNQYYLQLNSVTSEDTATYYCASRGYWGQGTTLTVSS
VL: DVVMTQTPLSLSVTIGQPASISCKSSQSLLYSNGKTYLNWLQQRPGQAPKLLMFQVSKPGIPDRFSGSGSETDFTLKISRVEAEDLGVYYCLQGTYFPHTFGAGTKVEIKR
notes: also called AvantGen LC-chimera
Kd [5]: 1.8 nM
koff [5]: 0.00111 s⁻¹
kon [5]: 627000 M⁻¹ s⁻¹
fold improvement in affinity over the parental mouse mAb [6]: 33 fold

B3: humanized variant LC2:HC1 (antibody, V domains shown)
VH: QVQLQESGPGLVKPSETLSLTCTVSGDSITSGYWSWIRQPPGKGLEWIGYIKYSGRTNYNPSLKSRVTISRDTSKNQFSLKLSSVTAADTAVYYCASRGYWGQGTLVTVSS
VL: DIVMTQTPLSLSVTPGQPASISCKSSQSLLDSDGKTFLNWLLQKPGQSPQLLIYLVSKLDSGVPDRFSGSGSGTDFTLKISRVEAEDVGVYYCWQGTHFPHTFGQGTKVEIKR
binding result [7]: no binding (tested: 30 nM CotH3)

B4: humanized variant Grafted LC:HC1 (antibody, V domains shown)
VH: QVQLQESGPGLVKPSETLSLTCTVSGDSITSGYWSWIRQPPGKGLEWIGYIKYSGRTNYNPSLKSRVTISRDTSKNQFSLKLSSVTAADTAVYYCASRGYWGQGTLVTVSS
VL: DIVMTQTPLSLSVTPGQPASISCKSSQSLLDSDGKTFLYWYLQKPGQSPQLLIYLVSSRFSPDRFSGSGSGTDFTLKISRVEAEDVGVYYCWQGTHFPHTFGQGTKVEIKR
binding result [7]: no binding (tested: 30 nM CotH3)

B5: humanized variant LC1:HC1 (antibody, V domains shown)
VH: QVQLQESGPGLVKPSETLSLTCTVSGDSITSGYWSWIRQPPGKGLEWIGYIKYSGRTNYNPSLKSRVTISRDTSKNQFSLKLSSVTAADTAVYYCASRGYWGQGTLVTVSS
VL: DIVMTQTPLSLSVTPGQPASISCKSSQSLLDSDGKTFLYWYLQKPGQSPQLLIYLVSKLDSGVPDRFSGSGSGTDFTLKISRVEAEDVGVYYCWQGTHFPHTFGQGTKVEIKR
binding result [7]: no binding (tested: 30 nM CotH3)

B6: humanized anti-CotH3 antibody LC2:HC3 (antibody, human IgG1, kappa, V domains shown)
VH: QVQLQESGPGLVKPSETLSLTCTVSGDSITSGYWNWIRQPPGKGLEHIGYIKYSGRTFYNPSLKSRVTISRDTSKNQFSLKLSSVTAADTAVYYCASRGYWGQGTLVTVSS
VL: DIVMTQTPLSLSVTPGQPASISCKSSQSLLDSDGKTFLNWLLQKPGQSPQLLIYLVSKLDSGVPDRFSGSGSGTDFTLKISRVEAEDVGVYYCWQGTHFPHTFGQGTKVEIKR
notes: also called L2:H3; IgG anti-CotH3-LC2HC3
Mean: FITC-A [8]: 40600
Median: FITC-A [8]: 36500
Mean: FITC-A [9]: 29000
Median: FITC-A [9]: 29000
Mean: FITC-A [10]: 29800
Median: FITC-A [10]: 29200
Mean: FITC-A [11]: 28900
Median: FITC-A [11]: 27700

B7: humanized anti-CotH3 antibody LC3:HC3 (antibody, human IgG1, kappa)
heavy: not shown
light: DIVMTQTPLSLSVTPGQPASISCKSSQSLLDSDGKTFLNWLLQKPGQSPQRLIYLVSKLDSGVPDRFSGSGSGTDFTLKISRVEAEDVGVYYCWQGTHFPHTFGQGTKVEIKRTVAAPSVFIFPPSDEQLKSGTASVVCLLNNFYPREAKVQWKVDNALQSGNSQESVTEQDSKDSTYSLSSTLTLSKADYEKHKVYACEVTHQGLSSPVTKSFNRGEC
notes: also called VX01; L3:H3
Mean: FITC-A [8]: 22500
Median: FITC-A [8]: 18800
Mean: FITC-A [9]: 19800
Median: FITC-A [9]: 19900
Mean: FITC-A [10]: 19300
Median: FITC-A [10]: 18900
Mean: FITC-A [11]: 18200
Median: FITC-A [11]: 17000

B8: humanized variant LC3:HC1 (antibody, V domains shown)
VH: QVQLQESGPGLVKPSETLSLTCTVSGDSITSGYWSWIRQPPGKGLEWIGYIKYSGRTNYNPSLKSRVTISRDTSKNQFSLKLSSVTAADTAVYYCASRGYWGQGTLVTVSS
VL: DIVMTQTPLSLSVTPGQPASISCKSSQSLLDSDGKTFLNWLLQKPGQSPQRLIYLVSKLDSGVPDRFSGSGSGTDFTLKISRVEAEDVGVYYCWQGTHFPHTFGQGTKVEIKR
binding result [7]: no binding (tested: 30 nM CotH3)

B9: humanized variant LC1:HC3 (antibody, V domains shown)
VH: QVQLQESGPGLVKPSETLSLTCTVSGDSITSGYWNWIRQPPGKGLEHIGYIKYSGRTFYNPSLKSRVTISRDTSKNQFSLKLSSVTAADTAVYYCASRGYWGQGTLVTVSS
VL: DIVMTQTPLSLSVTPGQPASISCKSSQSLLDSDGKTFLYWYLQKPGQSPQLLIYLVSKLDSGVPDRFSGSGSGTDFTLKISRVEAEDVGVYYCWQGTHFPHTFGQGTKVEIKR
binding result [7]: no binding (tested: 30 nM CotH3)

B10: humanized variant LC2:Grafted HC (antibody, V domains shown)
VH: QVQLQESGPGLVKPSETLSLTCTVSGDSITSGYWSWIRQPPGKGLEWIGYIKYSGRTNYNPSLKSRVTISVDTSKNQFSLKLSSVTAADTAVYYCASRGYWGQGTLVTVSS
VL: DIVMTQTPLSLSVTPGQPASISCKSSQSLLDSDGKTFLNWLLQKPGQSPQLLIYLVSKLDSGVPDRFSGSGSGTDFTLKISRVEAEDVGVYYCWQGTHFPHTFGQGTKVEIKR
binding result [7]: no binding (tested: 30 nM CotH3)

B11: humanized variant LC3:Grafted HC (antibody, V domains shown)
VH: QVQLQESGPGLVKPSETLSLTCTVSGDSITSGYWSWIRQPPGKGLEWIGYIKYSGRTNYNPSLKSRVTISVDTSKNQFSLKLSSVTAADTAVYYCASRGYWGQGTLVTVSS
VL: DIVMTQTPLSLSVTPGQPASISCKSSQSLLDSDGKTFLNWLLQKPGQSPQRLIYLVSKLDSGVPDRFSGSGSGTDFTLKISRVEAEDVGVYYCWQGTHFPHTFGQGTKVEIKR
binding result [7]: no binding (tested: 30 nM CotH3)

B12: humanized variant LC1:HC2 (antibody, V domains shown)
VH: QVQLQESGPGLVKPSETLSLTCTVSGDSITSGYWSWIRQPPGKGLEHIGYIKYSGRTFYNPSLKSRVTISRDTSKNQFSLKLSSVTAADTAVYYCASRGYWGQGTLVTVSS
VL: DIVMTQTPLSLSVTPGQPASISCKSSQSLLDSDGKTFLYWYLQKPGQSPQLLIYLVSKLDSGVPDRFSGSGSGTDFTLKISRVEAEDVGVYYCWQGTHFPHTFGQGTKVEIKR
binding result [7]: no binding (tested: 30 nM CotH3)

B13: humanized anti-CotH3 antibody LC3:HC2 (antibody, human IgG1, kappa, V domains shown)
VH: QVQLQESGPGLVKPSETLSLTCTVSGDSITSGYWSWIRQPPGKGLEHIGYIKYSGRTFYNPSLKSRVTISRDTSKNQFSLKLSSVTAADTAVYYCASRGYWGQGTLVTVSS
VL: DIVMTQTPLSLSVTPGQPASISCKSSQSLLDSDGKTFLNWLLQKPGQSPQRLIYLVSKLDSGVPDRFSGSGSGTDFTLKISRVEAEDVGVYYCWQGTHFPHTFGQGTKVEIKR
notes: also called L3:H2; IgG anti-CotH3-LC3HC2
Mean: FITC-A [8]: 43200
Median: FITC-A [8]: 37100
Mean: FITC-A [9]: 35900
Median: FITC-A [9]: 35900
Mean: FITC-A [10]: 35600
Median: FITC-A [10]: 34900
Mean: FITC-A [11]: 21800
Median: FITC-A [11]: 20600
